# Measured values as given in publication PMC5538295.
# B1: human MMP-9 wild-type probe (ssRNA)
# RNA: GUUCUGGAGGAAAGGGAGGAGUGGAGGUGGGCUGGGCCCUCUCUUCUCACCUUUGUUUUUUGUUGGAGUGUUUCUAAU
# Target: FMRP (rat, UniProt Q80WE1 1-593)
# Experiment: EMSA; 150 mM KCl, tRNA; three shifted bands; Filter binding: 10 mM Tris pH 7.5, 50 mM KCl, 1 mM DTT, room temperature; REMSA: 20 mM HEPES pH 7.6, 150 mM KCl, 0.5 mM DTT, 5% glycerol, 50 ng/ul tRNA, room te
binder,measurement,value
B1,binding result,binds
